Results taken from patent publication US20230348587A1 (Astellas, published 2023).

T1: human TSPAN8(T131N)-GFP on CHO-K1 cell (human, UniProt P19075 1-237)
T1 construct: whole, on cells; Transiently expressed; GFP-positive cells were analysed; also called T131N mutant; not shown: GFP of the pCMV6-AC-GFP vector (ORIGENE, PS100010)
T1 sequence (looked up): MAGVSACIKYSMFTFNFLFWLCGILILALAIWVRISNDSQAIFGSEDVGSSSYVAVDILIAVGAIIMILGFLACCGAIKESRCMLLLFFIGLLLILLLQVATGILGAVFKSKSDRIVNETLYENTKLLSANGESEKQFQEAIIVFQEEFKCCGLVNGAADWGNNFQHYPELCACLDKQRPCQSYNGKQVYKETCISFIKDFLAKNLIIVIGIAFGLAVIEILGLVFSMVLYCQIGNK

T2: human TSPAN8-GFP protein on wild-type human TSPAN8 expressing CHO-K1 cell (human, UniProt P19075 1-237)
T2 construct: whole, on cells; Transiently expressed; GFP-positive cells were analysed; also called Human TSPAN8 (Wild type); not shown: GFP of the pCMV6-AC-GFP vector (ORIGENE, PS100010)
T2 chain: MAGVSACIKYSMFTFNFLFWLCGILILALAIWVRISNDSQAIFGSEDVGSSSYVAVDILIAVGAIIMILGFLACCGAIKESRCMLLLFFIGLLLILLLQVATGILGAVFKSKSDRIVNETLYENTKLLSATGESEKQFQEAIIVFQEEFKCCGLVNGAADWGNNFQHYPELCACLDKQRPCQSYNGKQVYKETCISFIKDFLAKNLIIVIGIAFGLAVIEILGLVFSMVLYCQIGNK

T3: human rat TSPAN8-GFP chimeric protein on CHO-K1 cell (human; rat, UniProt P19075 156-237)
T3 construct: range 156-237; whole protein on cells; also called Human rat chimeric TSPAN8; human rat TSPAN8 chimeric protein; not shown: GFP of the pCMV6-AC-GFP vector (ORIGENE, PS100010)
T3 sequence: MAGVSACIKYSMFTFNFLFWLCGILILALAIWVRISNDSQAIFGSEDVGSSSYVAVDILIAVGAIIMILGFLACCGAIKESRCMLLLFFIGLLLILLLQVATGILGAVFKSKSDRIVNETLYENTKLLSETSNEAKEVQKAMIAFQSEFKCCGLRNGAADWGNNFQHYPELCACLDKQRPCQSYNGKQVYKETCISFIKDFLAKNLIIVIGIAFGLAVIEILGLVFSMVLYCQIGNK

T4: human mouse TSPAN8-GFP chimeric protein on CHO-K1 cell (human; mouse, UniProt P19075 156-237)
T4 construct: range 156-237; whole protein on cells; also called Human mouse chimeric TSPAN8; human mouse TSPAN8 chimeric protein; not shown: GFP of the pCMV6-AC-GFP vector (ORIGENE, PS100010)
T4 sequence: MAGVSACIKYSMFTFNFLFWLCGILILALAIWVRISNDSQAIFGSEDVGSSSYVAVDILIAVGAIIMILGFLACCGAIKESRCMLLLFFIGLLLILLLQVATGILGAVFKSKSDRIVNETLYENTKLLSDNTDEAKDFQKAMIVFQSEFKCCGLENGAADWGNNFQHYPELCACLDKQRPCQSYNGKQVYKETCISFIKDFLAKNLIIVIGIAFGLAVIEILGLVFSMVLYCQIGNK

T5: human TSPAN8(T131A)-GFP on CHO-K1 cell (human, UniProt P19075 1-237)
T5 construct: whole, on cells; Transiently expressed; GFP-positive cells were analysed; also called T131A mutant; not shown: GFP of the pCMV6-AC-GFP vector (ORIGENE, PS100010)
T5 sequence (looked up): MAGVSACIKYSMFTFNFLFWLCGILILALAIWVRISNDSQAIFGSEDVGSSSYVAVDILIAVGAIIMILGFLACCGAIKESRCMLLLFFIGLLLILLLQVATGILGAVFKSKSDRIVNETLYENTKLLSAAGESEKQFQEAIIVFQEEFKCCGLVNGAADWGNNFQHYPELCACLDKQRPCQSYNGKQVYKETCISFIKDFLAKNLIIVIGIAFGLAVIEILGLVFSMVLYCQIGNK

T6: human mouse TSPAN8-GFP chimeric protein on CHO-K1 cell (human; mouse) (UniProt P19075)
T6 sequence: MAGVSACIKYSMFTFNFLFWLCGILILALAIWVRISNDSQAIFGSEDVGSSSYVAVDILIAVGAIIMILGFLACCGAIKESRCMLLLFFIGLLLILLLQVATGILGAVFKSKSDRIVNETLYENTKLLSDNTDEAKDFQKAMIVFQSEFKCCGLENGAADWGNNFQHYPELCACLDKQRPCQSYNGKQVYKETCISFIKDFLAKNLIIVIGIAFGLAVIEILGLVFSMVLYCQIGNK

T7: human TSPAN8-Myc-DDK expressed on CHO-K1 cell (human)
T7 construct: also called TSPAN8 (Myc-DDK-tagged)-Human tetraspanin 8 (ORIGENE, RC202694)
T7 chain: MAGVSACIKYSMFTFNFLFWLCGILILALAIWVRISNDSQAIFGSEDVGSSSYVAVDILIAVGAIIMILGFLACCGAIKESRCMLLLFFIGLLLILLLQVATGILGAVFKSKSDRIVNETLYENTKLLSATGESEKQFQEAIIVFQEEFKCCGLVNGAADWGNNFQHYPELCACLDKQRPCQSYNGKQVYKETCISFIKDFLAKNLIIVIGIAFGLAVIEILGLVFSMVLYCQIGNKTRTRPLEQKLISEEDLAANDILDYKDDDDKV


Tests used:
[1] = target: T1, human TSPAN8(T131N)-GFP on CHO-K1 cell; experiment: flow cytometry on GFP-positive CHO-K1 cells; MFI minus MFI on mock cell
[2] = target: T2, human TSPAN8-GFP protein on wild-type …; experiment: as above
[3] = target: T3, human rat TSPAN8-GFP chimeric protein …; experiment: as above
[4] = target: T4, human mouse TSPAN8-GFP chimeric protein …; experiment: as above
[5] = target: T5, human TSPAN8(T131A)-GFP on CHO-K1 cell; experiment: as above
[6] = target: T1, human TSPAN8(T131N)-GFP on CHO-K1 cell; experiment: flow cytometry on GFP-positive CHO-K1 cells; against wild-type human TSPAN8 expressing CHO-K1 cell
Text: (§1) Each vector produced was introduced into the CHO-K1 cell, to produce a cell transiently expressing a human TSPAN8-GFP protein, a human mouse TSPAN8-GFP chimeric protein or a human rat TSPAN8-GFP chimeric protein. The cell produced will be referred to as a wild-type human TSPAN8 expressing CHO-K1 cell, a human mouse TSPAN8 chimeric protein expressing CHO-K1 cell or a human rat TSPAN8 chimeric protein expressing CHO-K1 cell. Further, a cell in which a pCMV6-AC-GFP vector was introduced into a CHO-K1 cell (referred to as a mock cell) was produced. The bindings of 16B11, 16B12 and TAL69 to GFP-positive cells in these cells were measured by flow cytometry. No decrease in binding of TAL69 was observed either to the human rat or human mouse TSPAN8 chimeric protein expressing CHO-K1 cell. […] Meanwhile, the binding to the human mouse TSPAN8 chimeric protein expressing CHO-K1 cell attenuated as compared with that to the wild-type human TSPAN8 expressing CHO-K1 cell (FIGS. 5-1).
(§2) Further, in order to check whether or not the amino acid at position 131 of human TSPAN8 contributed to the binding of 16B11 or 16B12, a substitute of the amino acid was produced. Specifically, a vector containing a nucleotide sequence encoding a human TSPAN8-GFP fusion protein in which threonine (T) at position 131 of the amino acid sequence of human TSPAN8 in human TSPAN8-GFP of SEQ ID NO: 2 was replaced with alanine (A) or asparagine (N) (respectively referred to as “human TSPAN8(T131A)-GFP” or “human TSPAN8(T131N)-GFP”) was produced, and such a vector was transfected into the CHO-K1 cell, to construct a cell transiently expressing human TSPAN8(T131A)-GFP or human TSPAN8(T131N)-GFP. The cell constructed will be referred to as a human TSPAN8(T131A) expressing CHO-K1 cell or a human TSPAN8(T131N) expressing CHO-K1 cell. The bindings of 16B11, 16B12 and TAL69 to GFP-positive cells in these cells were measured by flow cytometry (FIGS. 5-3). As a result, the bindings of 16B11 and 16B12 to the human TSPAN8(T131A) expressing CHO-K1 cell and the human TSPAN8(T131N) expressing CHO-K1 cell attenuated as compared with the bindings to the wild-type human TSPAN8 expressing CHO-K1 cell.

[7] = target: T3, human rat TSPAN8-GFP chimeric protein …; experiment: as above
Text: as §1, §2

[8] = target: T4, human mouse TSPAN8-GFP chimeric protein …; experiment: as above
Text: as §1, §2

[9] = target: T5, human TSPAN8(T131A)-GFP on CHO-K1 cell; experiment: as above
Text: as §1, §2

[10] = target: T6, human mouse TSPAN8-GFP chimeric protein on CHO-K1 cell (human; mouse); experiment: flow cytometry on GFP-positive CHO-K1 cells; MFI minus MFI on mock cell
[11] = target: T7, human TSPAN8-Myc-DDK expressed on …; experiment: binding to human TSPAN8-Myc-DDK expressed CHO-K1 cell
Method: For further specifying an antigen, an experiment of binding to a human TSPAN8-Myc-DDK expressed CHO-K1 cell was performed. The human TSPAN8-Myc-DDK expressed CHO-K1 cell was produced by transfecting TSPAN8 (Myc-DDK-tagged)-Human tetraspanin 8 (TSPAN8) (ORIGENE, RC202694) (SEQ ID NO: 2) into a CHO-K1 cell. As a result, it was confirmed that ten antibodies of 16B11, 16B12, 5B7, 9F6, 12C12, 13A9, 15D1, 18C10, 19E4 and 21F7 (referred to also as the “ten anti-TSPAN8 antibodies”) bound to the human TSPAN8-Myc-DDK expressed CHO-K1 cell, and recognize TSPAN8 as an antigen.

[12] = target: T6, human mouse TSPAN8-GFP chimeric protein on CHO-K1 cell (human; mouse); experiment: flow cytometry on GFP-positive CHO-K1 cells; against wild-type human TSPAN8 expressing CHO-K1 cell

| ΔMFI [1] | ΔMFI [2] | ΔMFI [3] | ΔMFI [4] | ΔMFI [5] | ΔMFI relative value [6] | ΔMFI relative value [7] | ΔMFI relative value [8] | ΔMFI relative value [9] | ΔMFI relative value (relative (wild-type human TSPAN8 = 100)) [6] | ΔMFI [10] | binding result [11] | ΔMFI relative value (relative (wild-type human TSPAN8 = 100)) [12] | Binder |
| --- | --- | --- | --- | --- | --- | --- | --- | --- | --- | --- | --- | --- | --- |
| 143000 | 133000 | 96200 | 305000 | 184000 | 108 relative (wild-type human TSPAN8 = 100) | 72 relative (wild-type human TSPAN8 = 100) | 230 relative (wild-type human TSPAN8 = 100) | 139 relative (wild-type human TSPAN8 = 100) | – | – | – | – | Purified anti-human TSPAN8 Antibody (BioLegend, 362702 Clone TAL69) (antibody, V domains shown) VH: EVKLLESGGGLVQPGGSMRLSCAASGFTFTDFYMNWIRQPAGKAPEWLGFIRNKASGYTTEYNPSVKGRFTISRDNTQNMLYLQMNTLRAEDTATYYCARAHSYYGYDYFDYWGQGVMVTVSS VL: DIQMTQSPASLSASLEEIVTITCQASQDIGNWLSWYQQKPGKSPQLLIYGATSLADGVPSRFSGSRSGTQYSLKISRLQVEDIRIYYCLQAYSAPWTFGGGTKLELK |
| 3460 | 173000 | 161000 | – | 23400 | – | 93 relative (wild-type human TSPAN8 = 100) | – | 14 relative (wild-type human TSPAN8 = 100) | 2 | 5270 | binds | 3 | 16B11 (antibody, V domains shown, VelocImmune hybridoma antibody: human variable regions with mouse constant regions (chimeric); Used Alexa Fluor647-labeled in some assays; also called antibody 16B11; anti-TSPAN8 antibody 16B11) VH: QVQLVESGGGVVQPGRSLRLSCAASGFTFSSYGMHWVRQAPGKGLEWVAVIWYDGRNKYYADSVKGRFTISRDNSKNTLYLQMNSLRAEDTAVYYCTRDHSGSGSYYIDYWGQGTLVTVSS VL: EIAMTQSPATLSVSPGERATLSCRASQSVSSNLAWYQQKPGQAPRLLIYGASTRATGLPARFSGSGSGTEFTLTISSLQSEDFAVYYCQQYNNFWTFGQGTKVEIKR |
| – | – | 22400 | 102 | – | – | 84 relative (wild-type human TSPAN8 = 100) | 0 relative (wild-type human TSPAN8 = 100) | – | – | – | – | – | 16B12 (antibody, V domains shown, VelocImmune hybridoma antibody: human variable regions with mouse constant regions (chimeric); also called antibody 16B12; anti-TSPAN8 antibody 16B12) VH: QVQLVESGGGVVQPGRSLRLSCAASGFIFSSYGMHWVRQAPGKGLEWVAVIWYDGSNKYYADSVKGRFTISRDNSKNTLYLQMNSLRAEDTAMYYCARDHYGSGTYYIDYWGQGTLVTVSS VL: EIVMTQSPATLSVSPGERATLSCRASQTVSSNLAWYQQKPGQAPRLLIYGASTRATGFPARFSGSGSGTEFTLTISSLQSEDFAVYYCQQYNNWWTFGQGTKVEIKR |
